Experimental findings from publication PMC11889585, “Characterization of the putative yeast mitochondrial triacylglycerol lipase Tgl2” (The Journal of Biological Chemistry, 2025) are described below.

A word on the stoichiometry N: it is the number of molecules, sites or subunits per partner or assembly.

The target of the assay is T1, N terminally FLAG-tagged Tgl2 (S. cerevisiae, UniProt P54857 1-326).
T1 construct: Tgl2, S. cerevisiae; FLAG tag inserted at the N terminus of the ORF of Tgl2; the printed primer puts Met-FLAG directly before the second codon (AAA) of Tgl2; also called FLAG-Tgl2; source: S. cerevisiae tgl2Δ cells, coexpressed with HA-Tgl2 from plasmid pYX122; in solubilised mitochondria; not shown: FLAG, N-terminal, kept
T1 sequence (looked up): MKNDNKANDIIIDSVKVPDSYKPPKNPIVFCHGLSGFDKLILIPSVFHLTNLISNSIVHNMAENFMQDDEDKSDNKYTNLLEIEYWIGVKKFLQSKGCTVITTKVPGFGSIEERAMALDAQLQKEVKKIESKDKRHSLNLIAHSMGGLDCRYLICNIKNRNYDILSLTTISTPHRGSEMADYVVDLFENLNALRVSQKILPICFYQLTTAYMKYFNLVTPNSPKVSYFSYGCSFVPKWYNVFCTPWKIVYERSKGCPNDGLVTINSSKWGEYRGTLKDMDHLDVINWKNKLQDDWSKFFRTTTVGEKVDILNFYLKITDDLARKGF
Kind of assay: native gel or EMSA; antibody shift assay: digitonin-solubilised mitochondria with HA-Tgl2 and FLAG-Tgl2 incubated with 0, 0.5 or 1 μl anti-HA antibody on ice for 30 min, BN-PAGE, immunodecoration with anti-FLAG. The settings on record: partners not purified. On the technique in general: A gel shift assay detects complexes by their altered migration in electrophoresis.

B1: N terminally hemagglutinin (HA) tagged Tgl2 (natural protein, S. cerevisiae, UniProt P54857 1-326, looked up)
chain: T1 sequence (looked up)
notes: Tgl2, putative mitochondrial triacylglycerol lipase of the intermembrane space, S. cerevisiae; also called HA-Tgl2; native-like HA-Tgl2; source: S. cerevisiae (tgl2Δ, yme1Δ and other deletion strains), overexpressed from plasmid pYX142; in whole cell lysate, crude or isolated mitochondria; not shown: HA, N-terminal, kept
On to B1, for which the “stoichiometry N” value was at least 2.
